Laboratory results: patent US20260167734A1

Target: human FasL, cell surface (membrane-bound) (human) (UniProt P48023)
Test: cell-based or functional assay

human FasL, cell surface (membrane-bound) (human), sequence (P48023 whole entry): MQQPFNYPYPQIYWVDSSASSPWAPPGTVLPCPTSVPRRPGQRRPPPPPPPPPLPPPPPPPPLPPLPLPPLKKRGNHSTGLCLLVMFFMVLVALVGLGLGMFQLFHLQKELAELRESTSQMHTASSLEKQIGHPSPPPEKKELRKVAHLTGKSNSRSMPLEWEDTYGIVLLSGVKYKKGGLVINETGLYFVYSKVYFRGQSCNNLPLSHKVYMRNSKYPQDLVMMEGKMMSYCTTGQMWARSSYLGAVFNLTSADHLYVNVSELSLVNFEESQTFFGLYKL

**Q.** With “soluble CD95-Fc (sCD95-Fc) fusion protein (from UniProt P25445 26-172) (Fc fusion)” as the substance, how does the inhibition of FasL-mediated apoptosis of Jurkat cells (annexin-V externalization, flow cytometry), IC50 read?
**A.** 102 nM
